Measured values: US20240034784A1 (published 2024)

Key:
hClaudin18.2 = hClaudin18.2 (human, UniProt P56856 1-261); test: FACS
CLDN18.2 = CLDN18.2 (human, UniProt P56856 1-261); test: FACS

- EC50 (hClaudin18.2): 0.00672 µM
- EC50 (CLDN18.2): 0.0191 µM
B1: IMAB362 (antibody, V domains shown)
VH: QVQLQQPGAELVRPGASVKLSCKASGYTFTSYWINWVKQRPGQGLEWIGNIYPSDSYTNYNQKFKDKATLTVDKSSSTAYMQLSSPTSEDSAVYYCTRSWRGNSFDYWGQGTTLTVSS
VL: DIVMTQSPSSLTVTAGEKVTMSCKSSQSLLNSGNQKNYLTWYQQKPGQPPKLLIYWASTRESGVPDRFTGSGSGTDFTLTISSVQAEDLAVYYCQNDYSYPFTFGSGTKLEIKR
